Patent EP4673749A1 (dated 2026)

T1: PRO-C6 sequence KPGVISVMGT (last 10 amino acids of the type VI collagen alpha3 chain, 3168-3177)
T1 construct: also called selection peptide; immunogenic peptide
T1 peptide: KPGVISVMGT

T2: elongated peptide KPGVISVMGTA
T2 construct: Synthetic peptide, Chinese Peptide Company
T2 peptide: KPGVISVMGTA

T3: truncated peptide KPGVISVMG
T3 construct: Synthetic peptide, American Peptide Company
T3 peptide: KPGVISVMG

T4: Pro-C3 target sequence CPTGPQNYSP (C-terminal neo-epitope of PIIINP, residues 144-153 of the alpha1 chain) (human)
T4 construct: Synthetic peptide with free C-terminus (-COOH)
T4 peptide: CPTGPQNYSP

T5: elongated peptide CPTGPQNYSPQ (human)
T5 construct: the peptide tested is printed with Pro at that position
T5 peptide: CPTGPQNYSPQ

T6: non-sense peptide GSPGKDGVRG
T6 construct: Control peptide
T6 peptide: GSPGKDGVRG


What was measured:
[1] = biological target: T1, PRO-C6 sequence KPGVISVMGT (last 10 …); test: hybridoma clone screening with peptides
[2] = biological target: T2, elongated peptide KPGVISVMGTA; test: hybridoma clone screening with peptides
[3] = biological target: T3, truncated peptide KPGVISVMG; test: hybridoma clone screening with peptides
[4] = biological target: T4, Pro-C3 target sequence CPTGPQNYSP …; test: antibody characterization with peptides (ELISA, as previously described)
[5] = biological target: T5, elongated peptide CPTGPQNYSPQ; test: as above
[6] = biological target: T6, non-sense peptide GSPGKDGVRG; test: as above

binding result [1] | binding result [2] | binding result [3] | binding result [4] | binding result [5] | binding result [6] | Binder
binds | no binding | no binding | – | – | – | PRO-C6 monoclonal antibody 10A3 (antibody, mouse IgG1, kappa, V domains shown, Mouse IgG1 / kappa; also called monoclonal antibody specific for PRO-C6) VH: EVQLQQSGPVMVKPGTSVKTSCKASGYTFTDFNMNWVKQSHGKSLEWIGAINPHNGATSYNQKFSGKATLTVDKSSSTAYMELNSLTSDDSAVYYCARWGNGKNSWGQGTTLTVSS VL: DVVMTQTPLSLPVNLGDQASISCRSSQRIVHSNGITFLEWYLQKPGQSPKLLIYRVSNRFSGVPDRFSGSGSGTDFTLKISRVEAEDLGLYYCFQGSHVPLTFGAGTRLELKR
– | – | – | binds | no binding | no binding | Pro-C3 monoclonal antibody (monoclonal antibody NB61N-62) (antibody, mouse IgG2a, kappa, V domains shown) VH: EVQLQQSGPEVLKPGASVKMSCKASGYTFINYVIHWLKQKAGQGPEWIGYMNPYNDVPKNNAKFRGKARLTSDRSSTTAYMELNSLTSEDSAVYYCARGGFFGPLSYWGQGTLVTVSA VL: DVLMTQTPLSLSVSLGDQASISCRSSQNIVYSNGDTYFEWYLQKPGQSPKLLIYKVSQRFSGVPDRFSGSGSGTDFTLKISRVETEDLGVYYCFQGAHDPPAFGGGTKLELKR
